Assay results from patent US6426205 (MOUNT SINAI HOSPITAL, dated 2002).

T1: Cdc53-Y48W, M49E^MYC6 (Saccharomyces cerevisiae, UniProt Q12018 1-815)
T1 construct: also called mutant Cdc53; pMT1939-1943
T1 sequence: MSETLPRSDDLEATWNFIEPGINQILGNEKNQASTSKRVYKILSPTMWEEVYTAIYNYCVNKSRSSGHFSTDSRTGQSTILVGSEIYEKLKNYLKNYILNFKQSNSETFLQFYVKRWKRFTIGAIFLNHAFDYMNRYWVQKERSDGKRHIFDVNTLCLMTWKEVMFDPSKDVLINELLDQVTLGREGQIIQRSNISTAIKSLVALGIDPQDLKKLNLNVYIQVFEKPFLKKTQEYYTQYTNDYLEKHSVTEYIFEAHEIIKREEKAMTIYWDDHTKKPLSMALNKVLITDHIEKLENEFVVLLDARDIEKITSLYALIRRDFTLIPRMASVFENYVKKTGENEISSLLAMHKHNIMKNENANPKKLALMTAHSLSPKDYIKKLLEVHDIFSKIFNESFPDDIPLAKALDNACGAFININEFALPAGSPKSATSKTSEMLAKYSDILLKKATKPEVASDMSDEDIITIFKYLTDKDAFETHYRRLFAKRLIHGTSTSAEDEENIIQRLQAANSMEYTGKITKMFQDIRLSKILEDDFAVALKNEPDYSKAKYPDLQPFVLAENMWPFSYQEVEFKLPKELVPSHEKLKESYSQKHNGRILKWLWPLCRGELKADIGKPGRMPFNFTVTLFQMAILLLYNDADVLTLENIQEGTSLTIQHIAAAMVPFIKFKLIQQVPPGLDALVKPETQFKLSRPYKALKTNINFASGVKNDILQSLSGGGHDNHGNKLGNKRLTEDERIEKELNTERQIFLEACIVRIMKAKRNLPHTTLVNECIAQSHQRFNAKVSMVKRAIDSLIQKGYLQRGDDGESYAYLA

T2: Cdc53 with deletion of residues 448-748 (MYC-tagged) (Saccharomyces cerevisiae, UniProt Q12018 1-815)
T2 construct: The limits of the text are used here; also called Cdc53 internal deletion
T2 sequence: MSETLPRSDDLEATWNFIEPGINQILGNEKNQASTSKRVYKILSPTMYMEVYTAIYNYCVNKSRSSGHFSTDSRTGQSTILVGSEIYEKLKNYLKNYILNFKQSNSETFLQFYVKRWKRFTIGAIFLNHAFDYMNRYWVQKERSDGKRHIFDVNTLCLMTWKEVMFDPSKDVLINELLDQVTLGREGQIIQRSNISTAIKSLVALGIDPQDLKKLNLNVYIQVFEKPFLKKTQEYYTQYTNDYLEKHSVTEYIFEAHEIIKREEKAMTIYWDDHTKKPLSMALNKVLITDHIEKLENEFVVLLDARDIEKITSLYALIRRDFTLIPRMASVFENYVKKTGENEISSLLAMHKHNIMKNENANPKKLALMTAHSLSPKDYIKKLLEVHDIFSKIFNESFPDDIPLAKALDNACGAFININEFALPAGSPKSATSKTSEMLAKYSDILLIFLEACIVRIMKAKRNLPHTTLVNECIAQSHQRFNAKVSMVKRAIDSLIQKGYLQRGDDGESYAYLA

T3: Cdc53^Δ9-280 (MYC-tagged) (Saccharomyces cerevisiae, UniProt Q12018 1-815)
T3 construct: Deletion built with natural and engineered restriction sites; also called CDC53^MΔ9-280; pMT1850
T3 sequence: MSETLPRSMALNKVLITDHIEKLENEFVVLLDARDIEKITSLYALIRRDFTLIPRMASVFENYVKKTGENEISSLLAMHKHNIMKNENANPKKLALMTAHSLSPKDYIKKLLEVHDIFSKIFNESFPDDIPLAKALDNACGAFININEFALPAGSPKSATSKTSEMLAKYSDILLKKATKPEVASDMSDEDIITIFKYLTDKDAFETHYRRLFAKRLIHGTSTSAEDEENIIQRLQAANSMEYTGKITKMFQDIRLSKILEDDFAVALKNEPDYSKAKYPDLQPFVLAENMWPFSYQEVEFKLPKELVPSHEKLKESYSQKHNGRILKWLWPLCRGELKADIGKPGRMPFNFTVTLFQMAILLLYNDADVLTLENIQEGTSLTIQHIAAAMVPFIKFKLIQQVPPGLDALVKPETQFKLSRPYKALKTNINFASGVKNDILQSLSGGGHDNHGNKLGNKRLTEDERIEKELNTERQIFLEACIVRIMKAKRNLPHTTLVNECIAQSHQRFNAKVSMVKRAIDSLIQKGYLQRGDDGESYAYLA

T4: MYC-tagged Cdc53 (Saccharomyces cerevisiae, UniProt Q12018 1-815)
T4 construct: Expressed from the wild type promoter on a CEN plasmid in yeast and immunoprecipitated with 9E10 anti-MYC; also called Cdc53^M; Cdc53^MYC6
T4 sequence: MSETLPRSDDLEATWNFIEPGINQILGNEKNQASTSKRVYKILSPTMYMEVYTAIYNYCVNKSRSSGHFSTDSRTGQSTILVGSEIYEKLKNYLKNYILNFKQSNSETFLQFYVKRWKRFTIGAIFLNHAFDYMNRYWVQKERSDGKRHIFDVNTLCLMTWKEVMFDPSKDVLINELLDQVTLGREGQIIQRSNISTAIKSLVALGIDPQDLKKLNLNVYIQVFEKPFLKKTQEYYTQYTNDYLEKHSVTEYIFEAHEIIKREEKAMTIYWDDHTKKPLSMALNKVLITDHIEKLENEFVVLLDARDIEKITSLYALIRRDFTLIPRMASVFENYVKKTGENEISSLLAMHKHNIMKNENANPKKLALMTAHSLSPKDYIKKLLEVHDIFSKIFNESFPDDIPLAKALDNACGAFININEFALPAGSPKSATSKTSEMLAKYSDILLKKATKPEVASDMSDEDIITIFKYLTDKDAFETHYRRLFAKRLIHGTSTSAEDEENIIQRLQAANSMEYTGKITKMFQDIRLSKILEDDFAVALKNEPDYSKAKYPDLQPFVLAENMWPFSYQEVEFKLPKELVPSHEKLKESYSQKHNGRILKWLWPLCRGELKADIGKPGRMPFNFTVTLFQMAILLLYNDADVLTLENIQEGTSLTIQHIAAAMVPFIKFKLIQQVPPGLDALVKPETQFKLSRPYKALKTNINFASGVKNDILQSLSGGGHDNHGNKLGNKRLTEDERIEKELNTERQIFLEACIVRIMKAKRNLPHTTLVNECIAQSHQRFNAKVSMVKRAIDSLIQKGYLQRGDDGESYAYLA

B1: Cdc34 (enzyme, budding yeast, UniProt P14682 1-295, looked up)
chain: MSSRKSTASSLLLRQYRELTDPKKAIPSFHIELEDDSNIFTWNIGVMVLNEDSIYHGGFFKAQMRFPEDFPFSPPQFRFTPAIYHPNVYRDGRLCISILHQSGDPMTDEPDAETWSPVQTVESVLISIVSLLEDPNINSPANVDAAVDYRKNPEQYKQRVKMEVERSKQDIPKGFIMPTSESAYISQSKLDEPESNKDMADNFWYDSDLDDDENGSVILQDDDYDDGNNHIPFEDDDVYNYNDNDDDDERIEFEDDDDDDDDSIDNDSVMDRKQPHKAEDESEDVEDVERVSKKI
notes: Endogenous protein in yeast lysates, detected with anti-Cdc34 antibodies; also called endogenous Cdc34

Legend:
Cdc53-Y48W, M49E^MYC6 = molecular target: T1, Cdc53-Y48W, M49E^MYC6; test: anti-MYC immunoprecipitation from yeast lysate, western blot
Protocol: This powder was thawed, spun to remove cellular debris, and cleared by spinning in ultracentrifuge. Protein concentration in the lysate was adjusted to 24 mg/ml in a volume of 1.25 ml lysis buffer+10 mM N-ethyl maleimide, for a final mass of 30 mg protein for each strain. 25 µl of a 50% slurry in lysis buffer of protein-A beads (Pierce) cross-linked with dimethyl suberimidate to the anti-MYC monoclonal antibody 9E10 was added to each lysate, incubated with gentle rocking at 4° C. for several hours, washed several times with lysis buffer, aspirated, resuspended in protein sample buffer, and run on two 10% polyacrylamide gels. One gel was transferred to polyvinylidene fluoride membrane and western blotted with anti-MYC, anti-Cdc34, and anti-Skp1 antibodies (FIG. 12A).

[1] = molecular target: T2, Cdc53 with deletion of residues 448-748 …; test: anti-MYC immunoprecipitation from yeast lysate, immunoblot
[2] = molecular target: T3, Cdc53^Δ9-280 (MYC-tagged); test: as above
MYC-tagged Cdc53 = molecular target: T4, MYC-tagged Cdc53; test: as above
Cdc34 = molecular target: B1; test: as above
Skp1 = molecular target: T5, Skp1 (budding yeast); test: as above
T5 construct: Endogenous protein in yeast lysates, detected with anti-Skp1 antibodies; also called endogenous Skp1
T5 sequence (chain, as listed by the source limits assumed): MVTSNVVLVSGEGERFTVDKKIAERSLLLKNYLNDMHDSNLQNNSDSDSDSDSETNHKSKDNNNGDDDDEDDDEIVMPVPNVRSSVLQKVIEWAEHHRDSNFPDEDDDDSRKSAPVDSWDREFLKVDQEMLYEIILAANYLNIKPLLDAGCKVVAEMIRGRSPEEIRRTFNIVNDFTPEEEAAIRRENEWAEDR

Row | Binder | binding result (Cdc53-Y48W, M49E^MYC6) | binding result [1] | binding result [2] | binding result (MYC-tagged Cdc53) | binding result (Cdc34) | binding result (Skp1)
1 | B1 | binds | no binding | binds | binds | – | –
2 | Cdc53 with IVRIMK (residues 755-760) mutated to polyalanine (MYC-tagged) (other, not shown: small tags and cut ends, also called CDC53^MIVRIMK; pMT1859) MSETLPRSDDLEATWNFIEPGINQILGNEKNQASTSKRVYKILSPTMYMEVYTAIYNYCVNKSRSSGHFSTDSRTGQSTILVGSEIYEKLKNYLKNYILNFKQSNSETFLQFYVKRWKRFTIGAIFLNHAFDYMNRYWVQKERSDGKRHIFDVNTLCLMTWKEVMFDPSKDVLINELLDQVTLGREGQIIQRSNISTAIKSLVALGIDPQDLKKLNLNVYIQVFEKPFLKKTQEYYTQYTNDYLEKHSVTEYIFEAHEIIKREEKAMTIYWDDHTKKPLSMALNKVLITDHIEKLENEFVVLLDARDIEKITSLYALIRRDFTLIPRMASVFENYVKKTGENEISSLLAMHKHNIMKNENANPKKLALMTAHSLSPKDYIKKLLEVHDIFSKIFNESFPDDIPLAKALDNACGAFININEFALPAGSPKSATSKTSEMLAKYSDILLKKATKPEVASDMSDEDIITIFKYLTDKDAFETHYRRLFAKRLIHGTSTSAEDEENIIQRLQAANSMEYTGKITKMFQDIRLSKILEDDFAVALKNEPDYSKAKYPDLQPFVLAENMWPFSYQEVEFKLPKELVPSHEKLKESYSQKHNGRILKWLWPLCRGELKADIGKPGRMPFNFTVTLFQMAILLLYNDADVLTLENIQEGTSLTIQHIAAAMVPFIKFKLIQQVPPGLDALVKPETQFKLSRPYKALKTNINFASGVKNDILQSLSGGGHDNHGNKLGNKRLTEDERIEKELNTERQIFLEACAAAAAAAKRNLPHTTLVNECIAQSHQRFNAKVSMVKRAIDSLIQKGYLQRGDDGESYAYLA | – | – | – | – | binds | binds
